This is an account of results in US20040137516A1 (PHAGETECH, published 2004).

T1: S. aureus STAAU_R2 (DNA-directed DNA polymerase III beta subunit, DnaN), native protein in S. aureus extract (Staphylococcus aureus, UniProt P0A022 1-377)
T1 construct: also called PT48; PT 48
T1 sequence: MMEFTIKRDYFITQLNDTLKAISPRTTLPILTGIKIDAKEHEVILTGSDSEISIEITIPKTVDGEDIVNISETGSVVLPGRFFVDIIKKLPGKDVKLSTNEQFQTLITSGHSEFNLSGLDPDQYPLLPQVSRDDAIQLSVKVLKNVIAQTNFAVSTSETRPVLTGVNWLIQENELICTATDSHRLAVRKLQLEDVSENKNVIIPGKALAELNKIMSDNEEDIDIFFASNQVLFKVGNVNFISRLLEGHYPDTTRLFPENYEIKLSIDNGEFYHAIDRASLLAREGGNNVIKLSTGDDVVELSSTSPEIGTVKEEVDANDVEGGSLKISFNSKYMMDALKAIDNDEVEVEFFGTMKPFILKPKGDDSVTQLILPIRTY

T2: Glutathione-S-transferase (GST)-tagged STAAU_R2 (Staphylococcus aureus, UniProt P0A022 1-377)
T2 construct: Purified recombinant polypeptide captured by an anti-GST antibody on a CM5 chip; not shown: glutathione-S-transferase (GST) tag
T2 sequence: T1 sequence

T3: Gal4 activation domain-STAAU_R2 fusion (pGADSTAAU_R2) (yeast; Staphylococcus aureus, UniProt P0A022 1-377)
T3 construct: Expressed in yeast AH109 for two-hybrid analysis; not shown: limits and vector-encoded tags not st
T3 sequence: T1 sequence

B1: GST/G1 ORF 240 fusion protein (other)
chain: MVIPSIKAQNKFKNELEYYKQGHISESKMLELAFDYIQELEQNNEYVTNLLEEERYGE
modifications: also: fusion protein with GST moiety, not in chain
notes: also called GST ORF240; not shown: glutathione-S-transferase (GST) moiety encoded by expression vector pGEX 4T-1
B2: GST/44AHJD ORF 25 fusion protein (other)
chain: MERKYKTVLLYCDEIKGHFPHQISMFEDLYDAKVVYSYYEYNLFTKKYAYIIEYIKEI
modifications: also: fusion protein with GST moiety, not in chain
notes: also called GST/ORF 25; GST/ORF25; not shown: glutathione-S-transferase (GST) moiety encoded by expression vector pGEX 4T-1 (Pharmacia)
B3: purified bacteriophage 44AHJD ORF 25 protein (other)
chain: B2 chain
notes: Purified recombinant polypeptide injected as analyte in SPR; also called 44ADJH ORF 25
B4: Gal4 DNA binding domain-Lamin C control fusion (pGBKT7LaminC) (other)
chain: MKLLSSIEQACDICRLKKLKCSKEKPKCAKCLKNNWECRYSPKTKRSPLTRAHLTEVESRLERLEQLFLLIFPREDLDMILKMDSLQDIKALLTGLFVQDNVNKDAVTDRLASVETDMPLTLRQHRISATSSSEESSNKGQRQLTVSSEEVVSREVSGIKAAYEAELGDARKTLDSVAKERARLQLELSKVREEFKELKARNTKKEGDLIAAQARLKDLEALLNSKEAALSTALSEKRTLEGELHDLRGQVAKLEAALGEAKKQLQDEMLRRVDAENRLQTMKEELDFQKNIYSEELRETKRRHETRLVEID
notes: also called pGBKLaminC
B5: Gal4 activation domain-Twort ORF 168 fusion (pGADT7 construct) (other)
chain: MLFFKEKFYNELSYYRGGHKDLESMFELALEYIEKLEEEDEQQVTDYENAMEEELRDAVDVIESQLEIIKDIVR
notes: Second orientation of the two-hybrid test; also called Twort ORF 168 polypeptide; not shown: limits and vector-encoded tags not st

Assay [1] has as its target T1, S. aureus STAAU_R2 (DNA-directed DNA …). The assay can be described thus: affinity chromatography of S. aureus extract on GST ORF240-Affigel 10; SDS-PAGE silver stain.
For assay [2] the target is unchanged. As to the kind of experiment: affinity chromatography of S. aureus extract on GST/ORF25-Affigel 10; 1% SDS eluate, SDS-PAGE silver stain, MALDI-ToF identification.
Assay [3] addresses T2, Glutathione-S-transferase (GST)-tagged …. As to the kind of experiment: SPR (Biacore 2000); GST-tagged STAAU_R2 captured by anti-GST antibody on CM5 chip, ORF 25 as analyte. For orientation: Surface plasmon resonance follows binding to a sensor surface in real time, without labels.
Assay [4] has as its target T3, Gal4 activation domain-STAAU_R2 fusion …. As to the kind of experiment: yeast two-hybrid, growth on THAL minus medium.
Assay [5] addresses B4. As to the kind of experiment: yeast two-hybrid, growth on THAL minus medium.

Where no end group is shown, it is not given here.

Take B1: the binding result in assay [1] is recorded as “binds”.

On to B2, for which, in assay [2], the binding result is recorded as “binds”.

Take B3: in assay [3], the binding result is on record as “binds”.

With B4, the binding result in assay [4] is on record as “no binding”.

For B5, the binding result in assay [5] is on record as “no binding”.
